Assay [1] has as its target T1, Fzd1 cysteine rich domain (CRD), C-terminally biotinylated (human, UniProt Q9UP38 101-230). Kind of assay: BLI. The method, then:
(§1) Binding kinetics of antibody fragments to a variety of Fzd cysteine rich domain (CRD) protein targets (Fzd1, Fzd2, Fzd3, Fzd4, Fzd5, Fzd6, Fzd7, Fzd8, Fzd9 and/or Fzd10 CRDs) was determined by bio-layer interferometry (BLI) using Octet Red 96 (PALL ForteBio, Fremont, CA) instruments at 30° C., 1000 rpm with streptavidin (SA) biosensors. C-terminal biotinylated Fzd CRD recombinant protein was diluted to 20 nM in the running buffer (PBS, 0.05% Tween-20, 0.5% BSA, pH 7.2) and captured to the SA biosensor until coupling length reached 0.2 nm. Following capture of the Fzd CRD, the SA biosensor with captured biotinylated-Fzd CRD was dipped into wells containing the relevant antibody fragment at […] (0, 1.37, 4.12, 12.4, 37, 111.1, 333.3, 1000 nM) in running buffer, plus a well with only running buffer as a reference channel. […] was determined by global fitting, 1:1 binding model according to manufacturer recommended settings.
(§2) Table 1B provides clone IDs, the sequence identifier number of the antibody heavy chain fragment and/or light chain fragment, if present, for illustrative clones. In certain embodiments, the Fzd binding domain is an Fab or was derived from an Fab, so the heavy chain of Table 1B includes VH and CH1 sequence, but not CH2 or CH3 sequences. In certain embodiments, the Fzd binding domain is a VHH or sdAb® or was derived from a VHH or sdAb, so Table 1B includes the VHH domain. […] The Kd values were determined by BLI as described above. Blank entries denote that the binding to the specific Fzd receptor has not yet been determined. The entry of "n.b." indicates no binding.
Background: BLI is a label-free optical method that tracks binding on a fibre tip over time.

Assay [2] deals with Fzd2 cysteine rich domain (CRD), C-terminally biotinylated (human, UniProt Q14332 24-155). Kind of assay: BLI. The method, then:
as §1, §2

The target in assay [3] is T1, Fzd1 cysteine rich domain (CRD), …. The assay is described as follows: BLI; *=Kd <=100 nM. The method, then:
as §1
One antibody fragment, clone 001S-A04, was selected for alanine-scanning mutagenesis of CDRs, and the respective Fzd1 binding affinities of the various mutants were determined by Octet BLI as described in Example 1.

What is called KD is the concentration at which binding is half-saturated. A low value points to tighter binding.

B1: 004S-D08 (Fab, V domains shown)
VH: QVQLVQSGAEVKKPGSSVKVSCKASGYTFTYRYLHWVRQAPGQGLEWMGGIIPIFGTANYAQKFQGRVTITADESTSTAYMELSSLRSEDTAVYYCATHDSSGYYSFDYWGQGTLVTVSS
VL: not shown
In the case of B1, the binding result in assay [1] and in assay [2] was “no binding (tested: 1000 nM)” throughout.

B2: 004S-C09 (Fab, V domains shown)
VH: QVQLVQSGAEVKKPGASVKVSCKASGYTFTNNFMHWVRQAPGQGLEWMGGFDPEDGETIYAQKFQGRVTMTRDTSTSTVYMELSSLRSEDTAVYYCARVGRGYSFDYWGQGTLVTVSS
VL: not shown
Regarding B2, the binding result in assay [1] and in assay [2] was “no binding (tested: 1000 nM)” throughout.

B3: 004S-B08 (Fab, V domains shown)
VH: QVQLVQSGAEVKKPGASVKVSCKASGYTFTNNFMHWVRQAPGQGLEWMGRINPNSGGTNYAQKFQGRVTMTRDTSTSTVYMELSSLRSEDTAVYYCASQNYYGSGSYPGFDYWGQGTLVNVSS
VL: not shown
Regarding B3, the binding result in assay [1] and in assay [2] was “no binding (tested: 1000 nM)” throughout.

B4: 001S-A04 mutant VHG10A (Fab, V domains shown)
VH: EVQLVQSGAEVKKPGASVKVSCKASGYTFTSYGISWVRQAPGQGLEWMGWISAYNGNTNYAQKLQGRVTMTTDTSTSTAYMELRSLRSDDTAVYYCASSKEKATYYYAMDVWGQGTTVTVSS
VL: QAVVLQEPSLSVSPGGTVTLTCGLSSGSVSTNYYPSWYQQTPGQAPRTLIYYTNTRSSDVPERFSGSIVGNKAALTITGAQPDDESVYFCLLYLGRGIWVFGGGTKLTVLG
Regarding B4, the dissociation constant (KD) in assay [3] is at most 100 nM.

B5: 001S-A04 mutant VHK2A (Fab, V domains shown)
VH: EVQLVQSGAEVKKPGASVKVSCKASGYTFTSYGISWVRQAPGQGLEWMGWISAYNGNTNYAQKLQGRVTMTTDTSTSTAYMELRSLRSDDTAVYYCASSAEKATYYYGMDVWGQGTTVTVSS
VL: QAVVLQEPSLSVSPGGTVTLTCGLSSGSVSTNYYPSWYQQTPGQAPRTLIYYTNTRSSDVPERFSGSIVGNKAALTITGAQPDDESVYFCLLYLGRGIWVFGGGTKLTVLG
For the molecule B5, in assay [3], the KD was at most 100 nM.

B6: 001S-A04 mutant VHV13A (Fab, V domains shown)
VH: EVQLVQSGAEVKKPGASVKVSCKASGYTFTSYGISWVRQAPGQGLEWMGWISAYNGNTNYAQKLQGRVTMTTDTSTSTAYMELRSLRSDDTAVYYCASSKEKATYYYGMDAWGQGTTVTVSS
VL: QAVVLQEPSLSVSPGGTVTLTCGLSSGSVSTNYYPSWYQQTPGQAPRTLIYYTNTRSSDVPERFSGSIVGNKAALTITGAQPDDESVYFCLLYLGRGIWVFGGGTKLTVLG
In assay [3], B6 gave a KD of at most 100 nM.

B7: 001S-A04 mutant VHK4A (Fab, V domains shown)
VH: EVQLVQSGAEVKKPGASVKVSCKASGYTFTSYGISWVRQAPGQGLEWMGWISAYNGNTNYAQKLQGRVTMTTDTSTSTAYMELRSLRSDDTAVYYCASSKEAATYYYGMDVWGQGTTVTVSS
VL: QAVVLQEPSLSVSPGGTVTLTCGLSSGSVSTNYYPSWYQQTPGQAPRTLIYYTNTRSSDVPERFSGSIVGNKAALTITGAQPDDESVYFCLLYLGRGIWVFGGGTKLTVLG
B7 registered a dissociation constant KD in assay [3] of at most 100 nM.

B8: 001S-A04 mutant VLG5A (Fab, V domains shown)
VH: EVQLVQSGAEVKKPGASVKVSCKASGYTFTSYGISWVRQAPGQGLEWMGWISAYNGNTNYAQKLQGRVTMTTDTSTSTAYMELRSLRSDDTAVYYCASSKEKATYYYGMDVWGQGTTVTVSS
VL: QAVVLQEPSLSVSPGGTVTLTCGLSSGSVSTNYYPSWYQQTPGQAPRTLIYYTNTRSSDVPERFSGSIVGNKAALTITGAQPDDESVYFCLLYLARGIWVFGGGTKLTVLG
B8 gave an equilibrium dissociation constant (KD) in assay [3] of at most 100 nM.

B9: 001S-A04 mutant VLG7A (Fab, V domains shown)
VH: EVQLVQSGAEVKKPGASVKVSCKASGYTFTSYGISWVRQAPGQGLEWMGWISAYNGNTNYAQKLQGRVTMTTDTSTSTAYMELRSLRSDDTAVYYCASSKEKATYYYGMDVWGQGTTVTVSS
VL: QAVVLQEPSLSVSPGGTVTLTCGLSSGSVSTNYYPSWYQQTPGQAPRTLIYYTNTRSSDVPERFSGSIVGNKAALTITGAQPDDESVYFCLLYLGRAIWVFGGGTKLTVLG
The molecule B9 came in with a dissociation constant KD in assay [3] of at most 100 nM.

The record behind these values is patent US12006368 (SURROZEN OPERATING, dated 2024).
